Legend:
BTAG 585B1-868 hiPSCs = experiment: Induction of iMeLCs from hiPSCs having induction capacity into BTAG positive cells (FACS of BTAG(+) cells); assay type: cell-based, human; conditions: added during induction of iMeLC; FIG. 10D, 10E
Experimental: (§1) Initial mesoderm-like cells (iMeLCs) were induced by seeding hiPSCs maintained in StemFit™ in a 12 well plate coated with human plasma fibronectin (Millipore, FC010) at 1.0-2.0×10^5 cells per well in GK15 medium [GMEM containing 15% KSR, 0.1 mM NEAA, 2 mM L-glutamine, 1 mM sodium pyruvate and 0.1 mM 2-mercaptoethanol (Life Technologies)] containing 50 ng/ml activin A, 3 μM CHIR99021 and 10 μM ROCK inhibitor (Y-27632; Wako Pure Chemical Industries). The hiPSCs were induced by seeding in a low-cell-binding V-bottom 96 wellplate (Thermo, 81100574) at 3.0×10^3 cells per well in GK15 added with 1000 U/ml LlF (Millipore, #LIF1005), 200 ng/ml BMP 4,100 ng/ml SCF (R&D Systems, 455-MC), 50 ng/ml EGF (R&D Systems, 236-EG), and 10 μM ROCK inhibitor. For investigation of conditions and induction of iMeLCs or hPGCLC, PD173074 (StemGent, #04-0008) or LDN193189 (StemGent, #04-0074) was respectively added. Other than the above, WNT3A (R&D Systems, 5036-WN) was used instead of CHIR99021, and BMP2 (R&D Systems, 355-BM), BMP7 (R&D Systems, 354-BP), or BMP8A (R&D Systems, 1073-BP) was used instead of BMP4.
(§2) Floating aggregates containing hPGCLCs were separated by treating with 0.05% Trypsin-EDTA/PBS at 37° C. for 10 min. […] The collected cells were suspended in FACS buffer (0.1% BSA in PBS) and analyzed by a flow cytometer (ARIA III; BD Biosciences). […]

iMeLCs = experiment: Induction of BTAG positive cells (hPGCLCs) from iMeLCs in floating aggregates; assay type: cell-based, human; conditions: combination of BMP4, LIF, SCF and EGF changed; FIG. 11A-D
Experimental: as §1, §2

B1: BMP4: bone morphogenetic 4 (protein, UniProt P12644 293-408, looked up)
Bone morphogenetic protein 4: SPKHHSQRARKKNKNCRRHSLYVDFSDVGWNDWIVAPPGYQAFYCHGDCPFPLADHLNSTNHAIVQTLVNSVNSSIPKACCVPTELSAISMLYLDEYDKVVLKNYQEMVVEGCGCR
Question: What does the source list for B1?
Answer: effect of signaling on iMeLCs induction (BTAG 585B1-868 hiPSCs): acts negatively; role in induction of BTAG positive cells from iMeLCs (iMeLCs): essential
